Among the data in the RNAGym collection of RNA variant scans (doi:10.7554/elife.80360) are self-cleavage values, retold here.

The labels stand for the following.
B1: HDV Ribozyme (parent)
chain: GGCCGGCAUGGUCCCAGCCUCCUCGCUGGCGCCGGCUGGGCAACAUUCCGAGGGGACCGUCCCCUCGGUAAUGGCGAAUGGGACCCA

This data set covers variants of B1. The data set is described as follows: self-cleavage, relative activity (ratio to wild type); higher = more cleavage; co-transcriptional.
Take G29A C30A: the self-cleavage was determined as 0.0264.
Consider G29A C30U, for which the self-cleavage is 0.095.
With G28C C61U the figure was 0.185; with G28U C84A, 0.0594; with G28U C84U, 0.0489.
With G28C G40C the figure was 0.113; with G28U C49G, 0.116.
With G29C C84G the figure was 0.208.
With G29C C84A, the self-cleavage came to 0.0831.
The same measure for G29C C84U: 0.032; for G28U A87C: 0.113; for G28C C44G: 0.
The same measure for G28C C32A: 0.154; for G28C C32G: 0.
For the variant G28U C66G, the self-cleavage was 0.277.
With G28U C66A the figure was 0.197.
Consider G28U C61G, for which the self-cleavage came out at 0.0678.
With G28U C36U the figure was 0.
For G28U C36A, the self-cleavage was found to be 0.0898.
The same measure for G28U C36G: 0.0665; for G29C G67C: 0.104; for G29C C48U: 0.135.
With G29A G54C the figure was 0.113.
The same measure for G29A G54A: 0.0989.
With G28U U46C, the self-cleavage came out at 0.
In the case of G28U U46G, the self-cleavage was determined as 0.
With G28C G82U the figure was 0.102.
The same measure for G28C G82A: 0.0852.
Consider G28U G50U, for which the self-cleavage is 0.163.
With G28U G50C the figure was 0.212; with G28C C75A, 0.113; with G28C C75U, 0.0361.
With G28C C84U the figure was 0.0396.
With G29C G54A the figure was 0.0773; with G29C G54U, 0.204; with G29A A43U, 0.0252.
Consider G29A A43G, for which the self-cleavage turned out to be 0.0386.
G28C A56G: the self-cleavage worked out at 0.107.
The same measure for G28C A56U: 0.138; for G29C A45C: 0.111.
Turning to G29C A45G, the self-cleavage is 0.
The same measure for G28C A83G: 0.0542; for G28C A83C: 0.
The same measure for G28C A83U: 0.0437; for G28U C58G: 0.0852.
With G29C C36U the figure was 0.0755.
As for G29C C36G, the self-cleavage amounted to 0.0536.
With G29A U47A the figure was 0.148; with G28U G54A, 0.115; with G28U G54U, 0.0712.
With G28U G54C the figure was 0.234; with G28U A43G, 0.131; with G28U A43C, 0.0755.
Regarding G29C G40U, the self-cleavage stood at 0.0615.
With G29C G59C the figure was 0.123.
With G28C U79A, the self-cleavage was found to be 0.
As to G28C U79C, the self-cleavage came out at 0.155.
The same measure for G28C A43U: 0.111; for G29C C32U: 0.119; for G29C C32A: 0.0791.
With G28U A45G the figure was 0.208; with G28U G76A, 0.142.
With G28U G76C the figure was 0.242; with G28U G76U, 0.187; with G29A C41G, 0.0339.
As to G29C C63G, the self-cleavage came out at 0.0489.
The same measure for G29C C63A: 0.117; for G29C C63U: 0; for G28C U60C: 0.0852.
The same measure for G29C G55C: 0.0332; for G29A A78C: 0.0997; for G29A A78G: 0.0804.
Turning to G28U C75A, the self-cleavage turned out to be 0.0755.
With G29C A77C, the self-cleavage is 0.0639.
The same measure for G29C G82C: 0.0739.
Regarding G29A A71U, the self-cleavage was 0.0615.
The same measure for G29A C85U: 0.0978; for G29C G38A: 0.
With G29C A78U the figure was 0.0773.
With G28C G50C the figure was 0.0437; with G28C C48U, 0.0978; with G28U G29C, 0.106.
Regarding G29C A42G, the self-cleavage worked out at 0.
With G29C A42U the figure was 0.0314; with G28C G29U, 0.
With G29C U46C the figure was 0.0755.
The same measure for G28U A78C: 0.0923.
As to G29A G76C, the self-cleavage stood at 0.256.
With G29A C32A the figure was 0.0222; with G29A C32U, 0.218; with G29A G35C, 0.149.
With G29A G35U the figure was 0.101; with G28U G35U, 0.0936; with G28C A77U, 0.107.
The same measure for G28C G76C: 0.136; for G28C U47A: 0.0536.
Turning to G28C U47C, the self-cleavage came to 0.0665.
Regarding G28C U47G, the self-cleavage came out at 0.0536.
G29C C58A: the self-cleavage is 0.0755.
Take G29C G50U: the self-cleavage worked out at 0.
With G29A G80A the figure was 0.163.
Regarding G29A G80C, the self-cleavage was 0.145.
On to G29A G67C, for which the self-cleavage is 0.237.
With G29A G67A the figure was 0.0791; with G29A G67U, 0.231.
In the case of G29A C75U, the self-cleavage is 0.0339.
With G29C A56G the figure was 0.0615; with G29C A56C, 0.237.
The same measure for G29C C57G: 0.133; for G29C C57A: 0.125.
With G29C A70C the figure was 0.0536; with G29C A70G, 0.101; with G29C A70U, 0.0811.
In the case of G29A C61A, the self-cleavage came to 0.177.
With G28U C86G the figure was 0.217; with G29A A45C, 0.
The same measure for G29A A45U: 0.0332; for G29A A45G: 0.142; for G28C C62U: 0.0369.
With G29A G39U the figure was 0.0432; with G29A G39C, 0.0941.
As for G29A G39A, the self-cleavage was 0.0863.
The same measure for G29C G31A: 0.0875; for G28U G73A: 0.
With G28U G73C the figure was 0; with G28U C32G, 0.133; with G29C C30G, 0.
With G29C C30U the figure was 0.0415; with G29A C58U, 0.197; with G29A C58G, 0.271.
With G28U G74C, the self-cleavage came out at 0.0992.
With G28U G74A the figure was 0.0528.
Take G28U G74U: the self-cleavage stood at 0.0639.
As to G28C U72G, the self-cleavage came to 0.138.
The same measure for G28C U72C: 0; for G29A C44A: 0.198.
G29A C44G: the self-cleavage is 0.151.
The same measure for G29C G53U: 0.0723; for G29C G53C: 0.0462.
G29C G53A: the self-cleavage was found to be 0.133.
The same measure for G28C G39C: 0; for G28C G39A: 0.0744; for G29A C64U: 0.144.
The same measure for G28C C33U: 0.232.
Consider G28C C33A, for which the self-cleavage is 0.106.
With G29C G73A the figure was 0.0707.
With G29C G73U the figure was 0.0583.
With G29C G73C the figure was 0.095.
Regarding G28C C64A, the self-cleavage stood at 0.104.
With G28C C64U the figure was 0.198; with G29C A83C, 0.142; with G29A A70G, 0.17.
For the variant G29A A70C, the self-cleavage was 0.0978.
The same measure for G29A A70U: 0.0739.
As to G28C G54A, the self-cleavage worked out at 0.0639.
Regarding G28C C57G, the self-cleavage came to 0.115.
The same measure for G28C C57A: 0; for G29A C57U: 0.234.
With G29A C57A the figure was 0.282; with G29C A71C, 0.0536.
The same measure for G28C G34C: 0.156; for G28C G34U: 0.0386.
As to G28U C62U, the self-cleavage worked out at 0.205.
For the variant G28U C62A, the self-cleavage worked out at 0.154.
The same measure for G29A A51U: 0.277; for G29A A51G: 0.366; for G28U C41U: 0.0779.
